Experimental data: IntAct's records for PubMed 19411703

B1: Phospholipid-transporting ATPase DRS2 (Saccharomyces cerevisiae), P39524 (parent)
chain: MNDDRETPPKRKPGEDDTLFDIDFLDDTTSHSGSRSKVTNSHANANYIPPSHVLPEETIDLDADDDNIENDVHENLFMSNNHDDQTSWNANRFDSDAYQPQSLRAVKPPGLFARFGNGLKNAFTFKRKKGPESFEMNHYNAVTNNELDDNYLDSRNKFNIKILFNRYILRKNVGDAEGNGEPRVIHINDSLANSSFGYSDNHISTTKYNFATFLPKFLFQEFSKYANLFFLCTSAIQQVPHVSPTNRYTTIGTLLVVLIVSAMKECIEDIKRANSDKELNNSTAEIFSEAHDDFVEKRWIDIRVGDIIRVKSEEPIPADTIILSSSEPEGLCYIETANLDGETNLKIKQSRVETAKFIDVKTLKNMNGKVVSEQPNSSLYTYEGTMTLNDRQIPLSPDQMILRGATLRNTAWIFGLVIFTGHETKLLRNATATPIKRTAVEKIINRQIIALFTVLIVLILISSIGNVIMSTADAKHLSYLYLEGTNKAGLFFKDFLTFWILFSNLVPISLFVTVELIKYYQAFMIGSDLDLYYEKTDTPTVVRTSSLVEELGQIEYIFSDKTGTLTRNIMEFKSCSIAGHCYIDKIPEDKTATVEDGIEVGYRKFDDLKKKLNDPSDEDSPIINDFLTLLATCHTVIPEFQSDGSIKYQAASPDEGALVQGGADLGYKFIIRKPNSVTVLLEETGEEKEYQLLNICEFNSTRKRMSAIFRFPDGSIKLFCKGADTVILERLDDEANQYVEATMRHLEDYASEGLRTLCLAMRDISEGEYEEWNSIYNEAATTLDNRAEKLDEAANLIEKNLILIGATAIEDKLQDGVPETIHTLQEAGIKIWVLTGDRQETAINIGMSCRLLSEDMNLLIINEETRDDTERNLLEKINALNEHQLSTHDMNTLALVIDGKSLGFALEPELEDYLLTVAKLCKAVICCRVSPLQKALVVKMVKRKSSSLLLAIGDGANDVSMIQAAHVGVGISGMEGMQAARSADIAVGQFKFLKKLLLVHGSWSYQRISVAILYSFYKNTALYMTQFWYVFANAFSGQSIMESWTMSFYNLFFTVWPPFVIGVFDQFVSSRLLERYPQLYKLGQKGQFFSVYIFWGWIINGFFHSAIVFIGTILIYRYGFALNMHGELADHWSWGVTVYTTSVIIVLGKAALVTNQWTKFTLIAIPGSLLFWLIFFPIYASIFPHANISREYYGVVKHTYGSGVFWLTLIVLPIFALVRDFLWKYYKRMYEPETYHVIQEMQKYNISDSRPHVQQFQNAIRKVRQVQRMKKQRGFAFSQAEEGGQEKIVRMYDTTQKRGKYGELQDASANPFNDNNGLGSNDFESAEPFIENPFADGNQNSNRFSSSRDDISFDI
partner: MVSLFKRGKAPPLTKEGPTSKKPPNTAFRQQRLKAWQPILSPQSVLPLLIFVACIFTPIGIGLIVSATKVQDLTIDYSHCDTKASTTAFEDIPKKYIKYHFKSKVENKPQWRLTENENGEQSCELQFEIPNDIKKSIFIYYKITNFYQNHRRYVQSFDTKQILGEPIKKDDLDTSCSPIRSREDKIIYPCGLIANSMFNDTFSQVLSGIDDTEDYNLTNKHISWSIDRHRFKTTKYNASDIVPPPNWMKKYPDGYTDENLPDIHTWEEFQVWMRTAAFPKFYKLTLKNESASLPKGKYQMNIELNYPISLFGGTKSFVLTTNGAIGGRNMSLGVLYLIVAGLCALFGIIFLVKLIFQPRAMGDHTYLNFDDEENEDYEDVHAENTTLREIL
B2: Phospholipid-transporting ATPase DNF1 (Saccharomyces cerevisiae), P32660 (parent)
chain: MSGTFHGDGHAPMSPFEDTFQFEDNSSNEDTHIAPTHFDDGATSNKYSRPQVSFNDETPKNKREDAEEFTFNDDTEYDNHSFQPTPKLNNGSGTFDDVELDNDSGEPHTNYDGMKRFRMGTKRNKKGNPIMGRSKTLKWARKNIPNPFEDFTKDDIDPGAINRAQELRTVYYNMPLPKDMIDEEGNPIMQYPRNKIRTTKYTPLTFLPKNILFQFHNFANVYFLVLIILGAFQIFGVTNPGLSAVPLVVIVIITAIKDAIEDSRRTVLDLEVNNTKTHILEGVENENVSTDNISLWRRFKKANSRLLFKFIQYCKEHLTEEGKKKRMQRKRHELRVQKTVGTSGPRSSLDSIDSYRVSADYGRPSLDYDNLEQGAGEANIVDRSLPPRTDCKFAKNYWKGVKVGDIVRIHNNDEIPADIILLSTSDTDGACYVETKNLDGETNLKVRQSLKCTNTIRTSKDIARTKFWIESEGPHSNLYTYQGNMKWRNLADGEIRNEPITINNVLLRGCTLRNTKWAMGVVMFTGGDTKIMLNSGITPTKKSRISRELNFSVVINFVLLFILCFVSGIANGVYYDKKGRSRFSYEFGTIAGSAATNGFVSFWVAVILYQSLVPISLYISVEIIKTAQAAFIYGDVLLYNAKLDYPCTPKSWNISDDLGQVEYIFSDKTGTLTQNVMEFKKCTINGVSYGRAYTEALAGLRKRQGIDVETEGRREKAEIAKDRDTMIDELRALSGNSQFYPEEVTFVSKEFVRDLKGASGEVQQRCCEHFMLALALCHSVLVEANPDNPKKLDLKAQSPDEAALVATARDVGFSFVGKTKKGLIIEMQGIQKEFEILNILEFNSSRKRMSCIVKIPGLNPGDEPRALLICKGADSIIYSRLSRQSGSNSEAILEKTALHLEQYATEGLRTLCIAQRELSWSEYEKWNEKYDIAAASLANREDELEVVADSIERELILLGGTAIEDRLQDGVPDCIELLAEAGIKLWVLTGDKVETAINIGFSCNLLNNEMELLVIKTTGDDVKEFGSEPSEIVDALLSKYLKEYFNLTGSEEEIFEAKKDHEFPKGNYAIVIDGDALKLALYGEDIRRKFLLLCKNCRAVLCCRVSPSQKAAVVKLVKDSLDVMTLAIGDGSNDVAMIQSADVGIGIAGEEGRQAVMCSDYAIGQFRYLARLVLVHGRWSYKRLAEMIPEFFYKNMIFALALFWYGIYNDFDGSYLYEYTYMMFYNLAFTSLPVIFLGILDQDVNDTISLVVPQLYRVGILRKEWNQRKFLWYMLDGLYQSIICFFFPYLVYHKNMIVTSNGLGLDHRYFVGVYVTTIAVISCNTYVLLHQYRWDWFSGLFIALSCLVVFAWTGIWSSAIASREFFKAAARIYGAPSFWAVFFVAVLFCLLPRFTYDSFQKFFYPTDVEIVREMWQHGHFDHYPPGYDPTDPNRPKVTKAGQHGEKIIEGIALSDNLGGSNYSRDSVVTEEIPMTFMHGEDGSPSGYQKQETWMTSPKETQDLLQSPQFQQAQTFGRGPSTNVRSSLDRTREQMIATNQLDNRYSVERARTSLDLPGVTNAASLIGTQQNN
partner: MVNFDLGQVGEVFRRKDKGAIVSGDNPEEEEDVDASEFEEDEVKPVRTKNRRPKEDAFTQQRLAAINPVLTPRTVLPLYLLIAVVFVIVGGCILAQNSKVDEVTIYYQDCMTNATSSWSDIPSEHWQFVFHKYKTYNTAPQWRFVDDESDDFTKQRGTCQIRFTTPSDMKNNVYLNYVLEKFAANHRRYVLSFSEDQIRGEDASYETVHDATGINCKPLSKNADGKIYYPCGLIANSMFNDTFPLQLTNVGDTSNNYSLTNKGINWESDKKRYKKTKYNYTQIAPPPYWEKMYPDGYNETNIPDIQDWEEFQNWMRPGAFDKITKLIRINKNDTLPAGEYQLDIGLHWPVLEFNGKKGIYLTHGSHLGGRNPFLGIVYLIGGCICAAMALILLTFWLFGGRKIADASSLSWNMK

Variants of: B1
Details: with cdc50_yeast CDC50, P25656

Row | Variant | effect of a mutation on the interaction
1 | G341L | decreasing interaction strength
2 | D560E | decreasing interaction strength
3 | E342Q | with no effect

Variants of: B1
Details: with cdc50_yeast CDC50, P25656
Remark: another data set of the same source

Row | Variant | effect of a mutation on the interaction
4 | D560N | decreasing interaction strength

Variants of: B2
Details: with lem3_yeast LEM3, P42838

Row | Variant | effect of a mutation on the interaction
5 | D667N | disrupting interaction strength
6 | D667E | disrupting interaction strength
